Data reported in patent US20020155500A1 (CURIS, published 2002).

Tests used:
[1] = molecular target: T1, ALK-4 (transfected cDNA, on cells) (UniProt P36896 24-505, limits assumed); assay: affinity cross-linking of ^125I-OP1 to COS-1 cells transfected with ALK4 and daf-4 cDNA; immunoprecipitation with ALK antiserum, autoradiography
T1 construct: whole, on cells
T1 sequence (looked up): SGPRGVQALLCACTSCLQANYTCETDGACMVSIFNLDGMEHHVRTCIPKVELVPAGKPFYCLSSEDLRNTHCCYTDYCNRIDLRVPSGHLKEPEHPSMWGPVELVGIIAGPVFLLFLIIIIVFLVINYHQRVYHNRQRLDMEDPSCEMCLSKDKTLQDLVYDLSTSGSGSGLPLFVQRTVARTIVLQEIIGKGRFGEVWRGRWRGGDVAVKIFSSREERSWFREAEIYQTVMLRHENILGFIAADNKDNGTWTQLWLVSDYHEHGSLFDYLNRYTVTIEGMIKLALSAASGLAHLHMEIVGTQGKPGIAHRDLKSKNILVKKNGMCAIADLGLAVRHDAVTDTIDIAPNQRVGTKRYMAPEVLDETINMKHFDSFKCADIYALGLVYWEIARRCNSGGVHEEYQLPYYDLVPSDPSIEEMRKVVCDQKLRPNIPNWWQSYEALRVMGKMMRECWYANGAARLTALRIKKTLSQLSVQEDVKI
Procedure: (§1) Briefly, cells in multi-well plates were washed with binding buffer (e.g., phosphate buffered saline containing 0.9 mM CaCl₂, 0.49 mM MgCl₂ and 1 mg/ml bovine serum albumin (BSA)), incubated on ice in the same buffer with labelled ligand, in the presence and absence of excess unlabelled ligand for sufficient time for the reaction to equilibrate (e.g., 3 hours.) Cells were washed and the crosslinking was done in the binding buffer without BSA together with 0.28 mM disuccinimidyl suberate for 15 min on ice. […] Cells were centrifuged again and supernatants subjected to analysis by standard SDS-gel electrophoresis using 4%-15% polyacrylamide gels, followed by autoradiography.
(§2) The gels were fixed and dried, and then subjected to autoradiography or analysis using phosphorimager (Molecular Dynamics).
(§3) In the Table, “N/T” means “not tested”. […] The values represented by “+/−”, “+”, “++”, “+++”, and “−”, are all qualitative descriptors of the relative amount of radioactivity measured when the crosslinked molecules were gel electrophoresed and subjected to autoradiography.

[2] = molecular target: T2, ALK-5 (transfected cDNA, on cells) (UniProt P36897 34-503, limits assumed); assay: affinity cross-linking of ^125I-OP1 to COS-1 cells transfected with ALK5 and daf-4 cDNA; immunoprecipitation with ALK antiserum, autoradiography
T2 construct: whole, on cells
T2 sequence (looked up): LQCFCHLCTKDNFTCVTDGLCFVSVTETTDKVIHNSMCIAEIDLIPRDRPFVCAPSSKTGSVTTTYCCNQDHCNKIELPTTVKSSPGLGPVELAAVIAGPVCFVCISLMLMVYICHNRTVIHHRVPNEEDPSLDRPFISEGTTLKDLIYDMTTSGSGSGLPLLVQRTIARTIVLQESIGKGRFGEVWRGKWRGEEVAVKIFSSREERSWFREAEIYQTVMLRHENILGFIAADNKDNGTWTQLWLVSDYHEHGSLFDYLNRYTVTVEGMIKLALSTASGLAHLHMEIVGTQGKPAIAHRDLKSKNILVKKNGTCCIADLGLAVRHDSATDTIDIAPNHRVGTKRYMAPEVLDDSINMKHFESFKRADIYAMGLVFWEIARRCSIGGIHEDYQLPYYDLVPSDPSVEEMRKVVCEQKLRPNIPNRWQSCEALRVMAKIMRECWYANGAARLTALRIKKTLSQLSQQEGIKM
Procedure: as §1, §2, §3

[3] = molecular target: T2, ALK-5 (transfected cDNA, on cells); assay: affinity cross-linking of ^125I-BMP4 to COS-1 cells transfected with ALK5 and daf-4 cDNA; immunoprecipitation with ALK antiserum, autoradiography
Procedure: as §1, §2, §3

[4] = molecular target: ALK-1 (transfected cDNA, on cells) (Homo sapiens (Human), UniProt P37023 22-503); assay: affinity cross-linking of ^125I-BMP4 to COS-1 cells transfected with ALK1 and daf-4 cDNA; immunoprecipitation with ALK antiserum, autoradiography
Procedure: as §1, §2, §3

[5] = molecular target: T3, ALK-2 (transfected cDNA, on cells) (Homo sapiens (Human), UniProt Q04771 21-509); assay: affinity cross-linking of ^125I-BMP4 to COS-1 cells transfected with ALK2 and daf-4 cDNA; immunoprecipitation with ALK antiserum, autoradiography
T3 construct: Expressed from cDNA in COS-1 cells or in Mv1Lu R mutant cells
T3 sequence: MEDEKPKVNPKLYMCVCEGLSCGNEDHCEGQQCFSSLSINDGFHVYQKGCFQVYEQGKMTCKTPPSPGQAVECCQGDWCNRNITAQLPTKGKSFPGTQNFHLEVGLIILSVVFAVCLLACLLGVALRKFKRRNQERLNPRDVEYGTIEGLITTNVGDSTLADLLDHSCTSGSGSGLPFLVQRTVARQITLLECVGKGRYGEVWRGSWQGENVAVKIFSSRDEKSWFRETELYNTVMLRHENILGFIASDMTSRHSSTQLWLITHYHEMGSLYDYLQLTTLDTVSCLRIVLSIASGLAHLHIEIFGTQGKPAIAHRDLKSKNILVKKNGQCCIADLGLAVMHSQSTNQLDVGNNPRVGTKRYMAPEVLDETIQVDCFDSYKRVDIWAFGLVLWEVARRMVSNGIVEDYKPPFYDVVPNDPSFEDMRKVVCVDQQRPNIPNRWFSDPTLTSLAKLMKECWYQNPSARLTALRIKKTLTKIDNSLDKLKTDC
Procedure: as §1, §2, §3

[6] = molecular target: T1, ALK-4 (transfected cDNA, on cells); assay: affinity cross-linking of ^125I-BMP4 to COS-1 cells transfected with ALK4 and daf-4 cDNA; immunoprecipitation with ALK antiserum, autoradiography
Procedure: as §1, §2, §3

Measured: binding result

ALK-1 (transfected cDNA, on cells), sequence (P37023 22-503 S172T limits assumed): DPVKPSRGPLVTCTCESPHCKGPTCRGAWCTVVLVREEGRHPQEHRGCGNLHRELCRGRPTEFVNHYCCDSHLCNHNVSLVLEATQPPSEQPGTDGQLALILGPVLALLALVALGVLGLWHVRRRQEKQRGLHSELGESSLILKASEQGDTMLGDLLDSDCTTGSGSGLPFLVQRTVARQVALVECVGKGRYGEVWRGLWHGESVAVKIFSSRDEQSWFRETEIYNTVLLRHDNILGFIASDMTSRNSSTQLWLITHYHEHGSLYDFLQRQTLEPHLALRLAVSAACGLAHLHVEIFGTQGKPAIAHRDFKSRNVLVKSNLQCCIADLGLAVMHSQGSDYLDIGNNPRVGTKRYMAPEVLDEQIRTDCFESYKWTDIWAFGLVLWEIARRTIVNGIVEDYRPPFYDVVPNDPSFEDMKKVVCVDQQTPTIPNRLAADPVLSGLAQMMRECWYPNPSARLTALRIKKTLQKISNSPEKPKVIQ

B1: OP-1 (osteogenic protein-1) (ligand)
chain: STGSKQRSQNRSKTPKNQEALRMANVAENSSSDQRQACKKHELYVSFRDLGWQDWIIAPEGYAAYYCEGECAFPLNSYMNATNHAIVQTLVHFINPETVPKPCCAPTQLNAISVLYFDDSSNVILKKYRNMVVRACGCH
modifications: ^125I label (radioiodinated, residue not stated); unlabeled when used as competitor
no binding: [1] | [2]

B2: BMP-4 (ligand, UniProt P12644 293-408, looked up)
chain: SPKHHSQRARKKNKNCRRHSLYVDFSDVGWNDWIVAPPGYQAFYCHGDCPFPLADHLNSTNHAIVQTLVNSVNSSIPKACCVPTELSAISMLYLDEYDKVVLKNYQEMVVEGCGCR
modifications: ^125I label (radioiodinated, residue not stated)
no binding: [3] | [4] | [5] | [6]
